Experimental data: patent US20190382488A1 (IMAGINAB, published 2019)
Substitutions are numbered along the chain they refer to. One block for each binder: values may come before it.

Tests used:
[1] = target: T1, recombinant human CD8 (rhCD8) (human, UniProt P01732 22-182); test: SPR (BIAcore), minibody captured via anti-human IgG Fc, hCD8 analyte at 50 nM
T1 construct: Soluble purified recombinant protein; also called purified recombinant human CD8 protein; soluble CD8
From the text: Surface plasma resonance (SPR) was used to determine the binding affinity for all the IAb_Mb_CD8 variants to recombinant human CD8 (Table 8.0). The minibody protein in the supernatant was captured on to the BIAcore chip using an anti-human IgG (Fc-specific) antibody. The amount of minibody captured on the chip was normalized to enable a direct comparison of binding affinity between the variants as a kinetic “scouting” experiment to rank affinities. The rhCD8 protein was passed over the captured minibody protein to measure binding.
Table 8.0 summarizes the measured association (ka), dissociation (kd), and kD constants for the IAb_Mb_CD8 variants binding to recombinant hCD8. The variants were captured on a BIAcore chip using anti-human Fc-specific IgG antibody.

[2] = target: T2, cell-surface human CD8 (human, UniProt P01732 22-235); test: flow cytometry, HPB-ALL cells
T2 construct: the cell is named under assay; also called cellular human CD8; CD8 on PC3-CD8 cells
Description: (§1) Flow cytometry analysis of minibodies binding to cell-surface human CD8 on HPB-ALL cells was performed. Cells were stained with respective concentrations of minibody, washed, and then stained with a secondary anti-human IgG (Fc-specific) APC-conjugated antibody. Analysis was performed with 10,000 events/point in triplicate for each concentration. The results are shown in graph format in FIG. 29A. The graph presents the normalized mean fluorescence intensity (MFI) vs. the log of the concentration (nM). Error bars represent the standard error. The data indicates an EC₅₀ of 0.15 nM and 0.19 nM.
as §1, with “analysis of IgG2 minibodies binding” for “analysis of minibodies binding”, “in FIG. 29E. The graph” for “in FIG. 29A. The graph”, “EC₅₀ of 0.1 nM, 0.13 nM, and 0.08” for “EC₅₀ of 0.15 nM and 0.19”, “nM, and 0.08 nM.” for “nM and 0.19 nM.”

[3] = target: T2, cell-surface human CD8; test: flow cytometry on HPB-ALL cells, anti-human IgG (Fc-specific)-APC
Description: as §1, with “analysis of IgG2 minibodies binding” for “analysis of minibodies binding”, “in FIG. 29E. The graph” for “in FIG. 29A. The graph”, “EC₅₀ of 0.1 nM, 0.13 nM, and 0.08” for “EC₅₀ of 0.15 nM and 0.19”, “nM, and 0.08 nM.” for “nM and 0.19 nM.”

[4] = target: T2, cell-surface human CD8; test: flow cytometry on CD8+ cells, transfection supernatant neat to 1:81, anti-human IgG (Fc-specific)-APC
Description: FIGS. 17A-17D display the results of the flow cytometry analysis of the IAb_Mb_CD8 variants. All histograms show allophycocyanin (APC) signal vs. counts. Supernatants from transfection of the variants at different dilutions were incubated with CD8+ cells. Cells were washed and subsequently stained with a secondary anti-human IgG (Fc-specific) APC conjugated antibody. 1×10⁵ cells were stained per point and analysis was performed with 10,000 events/point.

[5] = target: T2, cell-surface human CD8; test: flow cytometry on HPB-ALL cells, Protein L-biotin then streptavidin-APC
Description: Flow cytometry analysis of cys-diabody (+/−C-terminal cysteine conjugation to Desferoxamine) binding to cell-surface human CD8 on HPB-ALL cells was performed. Cells were stained with respective concentrations of cys-diabody, washed, stained with a secondary Protein L conjugated to Biotin, washed, then stained with a tertiary streptavidin-APC. Analysis was performed with 10,000 events/point in triplicate for each concentration. The results are shown in graph format in FIG. 30C. The graph presents the mean fluorescence intensity (MFI) vs. the log of the concentration (nM). Error bars represent the standard error. The data indicates an EC₅₀ of 0.04 nM and 0.06 nM.

T1 sequence (P01732 22-182 limits assumed): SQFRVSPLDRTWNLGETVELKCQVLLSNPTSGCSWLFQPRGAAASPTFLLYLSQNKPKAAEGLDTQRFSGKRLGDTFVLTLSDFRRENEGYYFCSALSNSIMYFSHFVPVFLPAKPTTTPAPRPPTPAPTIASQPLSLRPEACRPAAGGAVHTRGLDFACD
T2 sequence (P01732 22-235 limits assumed): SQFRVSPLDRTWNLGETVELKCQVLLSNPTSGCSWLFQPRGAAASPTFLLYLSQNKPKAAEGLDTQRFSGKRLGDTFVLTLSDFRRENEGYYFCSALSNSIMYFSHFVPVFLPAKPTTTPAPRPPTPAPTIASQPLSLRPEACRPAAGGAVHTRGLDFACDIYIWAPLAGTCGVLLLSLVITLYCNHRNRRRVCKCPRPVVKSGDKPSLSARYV

Ka [1]: 1.8e+08 M⁻¹
Kd [1]: 5.5 nM
koff [1]: 0.0029 s⁻¹
kon [1]: 540000 M⁻¹ s⁻¹
B1: IAb_Mb2d_CD8 (other)
chain: QVQLVQSGAEVKKPGATVKISCKVSGFNIKDTYIHFVQQAPGKGLEWIGRIDPANDNTLYASKFQGKATITADTSTDTAYMELSSLRSEDTAVYYCGRGYGYYVFDHWGQGTLVTVSGSTSGGGSGGGSGGGGSSDVQITQSPSSLSASVGDRVTITCRTSRSISQYLAWYQQKPGKVPKLLIYSGSTLQSGVPSRFSGSGSGTDFTLTISSLQPEDVATYYCQQHNENPLTFGGGTKVEIKEPKSCDKTHTCPPCGGGSSGGGSGGQPREPQVYTLPPSRDELTKNQVSLTCLVKGFYPSDIAVEWESNGQPENNYKTTPPVLDSDGSFFLYSKLTVDKSRWQQGNVFSCSVMHEALHNHYTQKSLSLSPGK
notes: also called variant 2d

Ka [1]: 3.4e+08 M⁻¹
Kd [1]: 2.9 nM
koff [1]: 0.002 s⁻¹
kon [1]: 700000 M⁻¹ s⁻¹
B2: IAb_Mb1d_CD8 (other)
chain: DVQITQSPSSLSASVGDRVTITCRTSRSISQYLAWYQQKPGKVPKLLIYSGSTLQSGVPSRFSGSGSGTDFTLTISSLQPEDVATYYCQQHNENPLTFGGGTKVEIKGSTSGGGSGGGSGGGGSSQVQLVQSGAEVKKPGATVKISCKVSGFNIKDTYIHFVQQAPGKGLEWIGRIDPANDNTLYASKFQGKATITADTSTDTAYMELSSLRSEDTAVYYCGRGYGYYVFDHWGQGTLVTVSEPKSCDKTHTCPPCGGGSSGGGSGGQPREPQVYTLPPSRDELTKNQVSLTCLVKGFYPSDIAVEWESNGQPENNYKTTPPVLDSDGSFFLYSKLTVDKSRWQQGNVFSCSVMHEALHNHYTQKSLSLSPGK
notes: also called variant 1d

EC50 [2]: 0.13 nM
EC50 [3]: 0.13 nM
B3: IAb_M1b_CD8 IgG2 EH (other)
chain: DVQITQSPSSLSASVGDRVTITCRTSRSISQYLAWYQQKPGKVPKLLIYSGSTLQSGVPSRFSGSGSGTDFTLTISSLQPEDVATYYCQQHNENPLTFGGGTKVEIKGSTSGGGSGGGSGGGGSSEVQLVESGGGLVQPGGSLRLSCAASGFNIKDTYIHFVRQAPGKGLEWIGRIDPANDNTLYASKFQGKATISADTSKNTAYLQMNSLRAEDTAVYYCGRGYGYYVFDHWGQGTLVTVSSERKCCVECPPCPGGGSSGGGSGGQPREPQVYTLPPSREEMTKNQVSLTCLVKGFYPSDIAVEWESNGQPENNYKTTPPMLDSDGSFFLYSKLTVDKSRWQQGNVFSCSVMHEALHNHYTQKSLSLSPGK
notes: Minibody homodimer with artificial IgG2 hinge-extension and IgG2 CH3

binding result [4]: binds
B4: Humanized IAb_Mb1_CD8 (other)
chain: DVQITQSPSSLSASVGDRVTITCRTSRSISQYLAWYQQKPGKVPKLLIYSGSTLQSGVPSRFSGSGSGTDFTLTISSLQPEDVATYYCQQHNENPLTFGGGTKVEIKGSTSGGGSGGGSGGGGSSQVQLVQSGAEVKKPGATVKISCKVSGFNIKDTYIHWVQQAPGKGLEWMGRIDPANDNTLYASKFQGRVTITADTSTDTAYMELSSLRSEDTAVYYCARGYGYYVFDHWGQGTLVTVSSEPKSCDKTHTCPPCGGGSSGGGSGGQPREPQVYTLPPSRDELTKNQVSLTCLVKGFYPSDIAVEWESNGQPENNYKTTPPVLDSDGSFFLYSKLTVDKSRWQQGNVFSCSVMHEALHNHYTQKSLSLSPGK
notes: Minibody homodimer, tested as transfection supernatant; also called humanized OKT8 minibody VL-VH; humanized variants

EC50 [2]: 0.08 nM
EC50 [3]: 0.08 nM
B5: IAb_M1b_CD8 IgG2 NH (other)
chain: DVQITQSPSSLSASVGDRVTITCRTSRSISQYLAWYQQKPGKVPKLLIYSGSTLQSGVPSRFSGSGSGTDFTLTISSLQPEDVATYYCQQHNENPLTFGGGTKVEIKGSTSGGGSGGGSGGGGSSEVQLVESGGGLVQPGGSLRLSCAASGFNIKDTYIHFVRQAPGKGLEWIGRIDPANDNTLYASKFQGKATISADTSKNTAYLQMNSLRAEDTAVYYCGRGYGYYVFDHWGQGTLVTVSSERKCCVECPPCPAPPVAGPGQPREPQVYTLPPSREEMTKNQVSLTCLVKGFYPSDIAVEWESNGQPENNYKTTPPMLDSDGSFFLYSKLTVDKSRWQQGNVFSCSVMHEALHNHYTQKSLSLSPGK
notes: Minibody homodimer with native IgG2 hinge and IgG2 CH3

binding result [4]: binds
B6: Humanized IAb_Mb2_CD8 (other)
chain: QVQLVQSGAEVKKPGATVKISCKVSGFNIKDTYIHWVQQAPGKGLEWMGRIDPANDNTLYASKFQGRVTITADTSTDTAYMELSSLRSEDTAVYYCARGYGYYVFDHWGQGTLVTVSSGSTSGGGSGGGSGGGGSSDVQITQSPSSLSASVGDRVTITCRTSRSISQYLAWYQQKPGKVPKLLIYSGSTLQSGVPSRFSGSGSGTDFTLTISSLQPEDVATYYCQQHNENPLTFGGGTKVEIKEPKSCDKTHTCPPCGGGSSGGGSGGQPREPQVYTLPPSRDELTKNQVSLTCLVKGFYPSDIAVEWESNGQPENNYKTTPPVLDSDGSFFLYSKLTVDKSRWQQGNVFSCSVMHEALHNHYTQKSLSLSPGK
notes: Minibody homodimer, tested as transfection supernatant; also called humanized OKT8 minibody VH-VL; humanized variants

Ka [1]: 2.2e+08 M⁻¹
Kd [1]: 4.5 nM
koff [1]: 0.0032 s⁻¹
kon [1]: 720000 M⁻¹ s⁻¹
B7: IAb_Mb2c_CD8 (other)
chain: B6 chain with W36F, M48I, R67K, V68A, E89G, A97G
notes: also called variant 2c

Ka [1]: 2.2e+08 M⁻¹
Kd [1]: 4.6 nM
koff [1]: 0.0022 s⁻¹
kon [1]: 480000 M⁻¹ s⁻¹
B8: IAb_Mb2a_CD8 (other)
chain: EVQLVESGGGLVQPGGSLRLSCAASGFNIKDTYIHFVRQAPGKGLEWIGRIDPANDNTLYASKFQGKATISADTSKNTAYLQMNSLRAGDTAVYYCGRGYGYYVFDHWGQGTLVTVSSGSTSGGGSGGGSGGGGSSDVQITQSPSSLSASVGDRVTITCRTSRSISQYLAWYQQKPGKVPKLLIYSGSTLQSGVPSRFSGSGSGTDFTLTISSLQPEDVATYYCQQHNENPLTFGGGTKVEIKEPKSCDKTHTCPPCGGGSSGGGSGGQPREPQVYTLPPSRDELTKNQVSLTCLVKGFYPSDIAVEWESNGQPENNYKTTPPVLDSDGSFFLYSKLTVDKSRWQQGNVFSCSVMHEALHNHYTQKSLSLSPGK
notes: also called variant 2a

Ka [1]: 5.3e+08 M⁻¹
Kd [1]: 1.9 nM
koff [1]: 0.0012 s⁻¹
kon [1]: 650000 M⁻¹ s⁻¹
B9: IAb_Mb1a_CD8 (other)
chain: DVQITQSPSSLSASVGDRVTITCRTSRSISQYLAWYQQKPGKVPKLLIYSGSTLQSGVPSRFSGSGSGTDFTLTISSLQPEDVATYYCQQHNENPLTFGGGTKVEIKGSTSGGGSGGGSGGGGSSEVQLVESGGGLVQPGGSLRLSCAASGFNIKDTYIHFVRQAPGKGLEWIGRIDPANDNTLYASKFQGKATISADTSKNTAYLQMNSLRAGDTAVYYCGRGYGYYVFDHWGQGTLVTVSSEPKSCDKTHTCPPCGGGSSGGGSGGQPREPQVYTLPPSRDELTKNQVSLTCLVKGFYPSDIAVEWESNGQPENNYKTTPPVLDSDGSFFLYSKLTVDKSRWQQGNVFSCSVMHEALHNHYTQKSLSLSPGK
notes: also called variant 1a

EC50 [5]: 0.06 nM
B10: IAb_Cys-Db3b_CD8-Df (other)
chain: DVQITQSPSSLSASVGDRVTITCRTSRSISQYLAWYQQKPGKVPKLLIYSGSTLQSGVPSRFSGSGSGTDFTLTISSLQPEDVATYYCQQHNENPLTFGGGTKVEIKGGGSGGGGEVQLVESGGGLVQPGGSLRLSCAASGFNIKDTYIHFVRQAPGKGLEWIGRIDPANDNTLYASKFQGKATISADTSKNTAYLQMNSLRAEDTAVYYCGRGYGYYVFDHWGQGTLVTVSSGGC
modifications: Desferoxamine (Df) conjugated to the C-terminal cysteine
notes: also called Df-labeled cys-diabody
